According to patent US20230137032A1 (GlaxoSmithKline, published 2023):

Experiments:
[1] = biological target: T1, recombinant human BCMA, commercial (US Biological, B0410) (human, UniProt Q02223 5-54, limits assumed); assay: Biacore T100, antibody captured on Protein A, 37C
T1 construct: also called commercial human BCMA; Human commercial BCMA
T1 chain (looked up): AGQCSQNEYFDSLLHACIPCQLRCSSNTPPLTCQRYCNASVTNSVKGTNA

[2] = biological target: T2, recombinant cyno BCMA, in house material (cyno, UniProt A0A2K5UD97 4-52); assay: Biacore T100, antibody captured on Protein A, 37C
T2 construct: also called Cyno in house BCMA

[3] = biological target: T1, recombinant human BCMA, commercial (US …); assay: ProteOn SPR run 2, antibody captured on Protein A, 25C
[4] = biological target: T2, recombinant cyno BCMA, in house material; assay: as above
[5] = biological target: T3, recombinant human BCMA, in house material (human, UniProt Q02223 4-53, limits assumed); assay: ProteOn SPR run 2, antibody captured on Protein A, 25C; Run 2 (Table 9)
T3 construct: also called Human in house BCMA; In house human BCMA
Protocol: The initial screen of CA8 chimeric and humanised variants was carried out on the ProteOn XPR36 (Biorad). The method was as follows; Protein A was immobilised on a GLC chip (Biorad, Cat No: 176-5011) by primary amine coupling, CA8 variants were then captured on this surface and recombinant human BCMA (in house or commercial US Biological, B0410) materials (run 2 only)) passed over at 256, 64, 16, 4, 1 nM with a 0 nM injection (i.e. buffer alone) used to double reference the binding curves, the buffer used is the HBS-EP buffer. 50 mM NaOH was used to regenerate the capture surface. The data was fitted to the 1:1 model using the analysis software inherent to the ProteOn XPR36. […] Both runs were carried out at 25° C.

[6] = biological target: T4, human BCMA expressed on cells (human, UniProt Q02223 1-184); assay: FACS on ARH77-hBCMA 10B5 transfectant cells, PE anti-human IgG, MFI
T4 construct: whole, on cells; also called human BCMA HEK293; ARH77-hBCMA 10B5 BCMA expressing transfectant cells
T4 sequence (looked up): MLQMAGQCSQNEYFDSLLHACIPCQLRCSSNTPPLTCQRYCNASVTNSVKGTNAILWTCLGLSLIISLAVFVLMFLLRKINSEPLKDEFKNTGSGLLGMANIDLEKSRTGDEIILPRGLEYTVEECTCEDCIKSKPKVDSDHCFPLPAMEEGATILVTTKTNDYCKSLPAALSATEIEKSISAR
Protocol: Cells were then washed with FACS buffer (PBS+0.5% BSA+0.1% sodium azide) to remove unbound antibody. Cells were incubated with a secondary PE labelled anti-human IgG antibody for 15 minutes at RT and then washed with FACS buffer to remove unbound antibody. Cells were analysed by FACS and mean fluorescence intensity (MFI) values measured to determine binding.

[7] = biological target: T1, recombinant human BCMA, commercial (US …); assay: Biacore T100, antibody captured on Protein A, 25C, experiment 1
Protocol: (§1) Protein A was immobilised on a CMS chip (GE Healthcare, Cat No: BR-1005-30) by primary amine coupling and this surface was then used to capture the antibody molecules. Recombinant human BCMA (US Biological, B0410) was used as analyte at 256 nM, 64 nM, 16 nM, 4 nM and 1 nM. Regeneration of the capture surface was carried out using 50 mM NaOH. All binding curves were double referenced with a buffer injection (i.e. 0 nM) the data was fitted to the using the 1:1 model inherent to T100 evaluation software. The run was carried out at 25° C. and 37° C. for experiment 1 and only 37° C. for experiment 2 using HBS-EP as the running buffer.

[8] = biological target: T1, recombinant human BCMA, commercial (US …); assay: Biacore T100, antibody captured on Protein A, 37C, experiment 1
Protocol: as §1

[9] = biological target: T1, recombinant human BCMA, commercial (US …); assay: Biacore T100, antibody captured on Protein A, 37C, experiment 2
Protocol: as §1

T2 sequence (A0A2K5UD97 entry or part of it): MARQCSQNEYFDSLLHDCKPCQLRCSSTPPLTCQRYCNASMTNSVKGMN

B1: CA8 humanised J7M1 (antibody, human IgG1, kappa, V domains shown)
VH: QVQLVQSGAEVKKPGSSVKVSCKASGYTFTNYWMHWVRQAPGQGLEWMGATYRGHSDTYYNQKFKGRVTITADKSTSTAYMELSSLRSEDTAVYYCARGAIYDGYDVLDNWGQGTLVTVSS
VL: DIQMTQSPSSLSASVGDRVTITCSASQDISNYLNWYQQKPGKAPKLLIYYTSNLHSGVPSRFSGSGSGTDYTLTISSLQPEDFATYYCQQYRKLPWTFGQGTKLEIKR
notes: Humanised CA8, heavy chain J7 with light chain M1, human IgG1 kappa; also called CA8 J7M1
In the case of B1, the Kd [1] is reported as 56 pM and the Kd [2] is reported as 1060 pM.

B2: CA8 humanised J8M1 (antibody, human IgG1, kappa, V domains shown)
VH: QVQLVQSGAEVKKPGSSVKVSCKASGYTFTNYWMHWVRQAPGQGLEWMGATYRGHSDTYYNQKFKGRVTITADKSTSTAYMELSSLRSEDTAVYYCTRGAIYDGYDVLDNWGQGTLVTVSS
VL: DIQMTQSPSSLSASVGDRVTITCSASQDISNYLNWYQQKPGKAPKLLIYYTSNLHSGVPSRFSGSGSGTDYTLTISSLQPEDFATYYCQQYRKLPWTFGQGTKLEIKR
notes: Humanised CA8, heavy chain J8 with light chain M1, human IgG1 kappa; also called CA8 J8M1
In the case of B2, the Kd [1] is reported as 50 pM and the Kd [2] is reported as 1280 pM.

B3: CA8 humanised J6M1 (antibody, human IgG1, kappa, V domains shown)
VH: QVQLVQSGAEVKKPGSSVKVSCKASGGTFSNYWMHWVRQAPGQGLEWMGATYRGHSDTYYNQKFKGRVTITADKSTSTAYMELSSLRSEDTAVYYCARGAIYDGYDVLDNWGQGTLVTVSS
VL: DIQMTQSPSSLSASVGDRVTITCSASQDISNYLNWYQQKPGKAPKLLIYYTSNLHSGVPSRFSGSGSGTDYTLTISSLQPEDFATYYCQQYRKLPWTFGQGTKLEIKR
notes: Humanised CA8, heavy chain J6 with light chain M1, human IgG1 kappa; also called CA8 J6M1
B3 showed a Kd [3] of 63 pM, a Kd [4] of 5300 pM and a Kd [5] of 124 pM. B3: binds [6].

B4: S307118G03 H5L0 (antibody, human IgG1, kappa, V domains shown)
VH: QVQLVQSGAEVKKPGSSVKVSCKASGYTFTDYYMKWVRQAPGQGLEWIGEIYPNNGGITYNQKFKGRATLTVDKSTSTAYMELSSLRSEDTAVYYCANGYEFDYWGQGTLVTVSS
VL: DIQMTQSPSSLSASVGDRVTITCSASQGISNYLNWYQQKPGKAPKLLIYYTSSLHSGVPSRFSGSGSGTDFTLTISSLQPEDFATYYCQQYSKLPWTFGQGTKLEIKR
notes: Humanised, human IgG1 kappa; also called S307118G03 humanised H5L0
B4: no binding [4].

B5: CA8 humanised J7M2 (antibody, human IgG1, kappa, V domains shown)
VH: QVQLVQSGAEVKKPGSSVKVSCKASGYTFTNYWMHWVRQAPGQGLEWMGATYRGHSDTYYNQKFKGRVTITADKSTSTAYMELSSLRSEDTAVYYCARGAIYDGYDVLDNWGQGTLVTVSS
VL: DIQLTQSPSSLSASVGDRVTITCSASQDISNYLNWYQQKPGKAPELVIYYTSNLHSGVPSRFSGSGSGTDYTLTISSLQPEDFATYYCQQYRKLPWTFGQGTKLEIKR
notes: Humanised CA8, heavy chain J7 with light chain M2, human IgG1 kappa; also called CA8 J7M2
In the case of B5, the Kd [1] is reported as 57 pM and the Kd [2] is reported as 1290 pM.

B6: CA8 humanised J7M0 (antibody, human IgG1, kappa, V domains shown)
VH: QVQLVQSGAEVKKPGSSVKVSCKASGYTFTNYWMHWVRQAPGQGLEWMGATYRGHSDTYYNQKFKGRVTITADKSTSTAYMELSSLRSEDTAVYYCARGAIYDGYDVLDNWGQGTLVTVSS
VL: DIQMTQSPSSLSASVGDRVTITCSASQDISNYLNWYQQKPGKAPKLLIYYTSNLHSGVPSRFSGSGSGTDFTLTISSLQPEDFATYYCQQYRKLPWTFGQGTKLEIKR
notes: Humanised CA8, heavy chain J7 with light chain M0, human IgG1 kappa; also called CA8 J7M0
B6 gave a Kd [1] of 64 pM and a Kd [2] of 1140 pM.

B7: CA8 humanised J9M0 (antibody, human IgG1, kappa, V domains shown)
VH: QVQLVQSGAEVKKPGSSVKVSCKGSGYTFTNYWMHWVRQAPGQGLEWIGATYRGHSDTYYNQKFKGRATLTADTSTSTAYMELSSLRSEDTAVYYCTRGAIYDGYDVLDNWGQGTLVTVSS
VL: DIQMTQSPSSLSASVGDRVTITCSASQDISNYLNWYQQKPGKAPKLLIYYTSNLHSGVPSRFSGSGSGTDFTLTISSLQPEDFATYYCQQYRKLPWTFGQGTKLEIKR
notes: Humanised CA8, heavy chain J9 with light chain M0, human IgG1 kappa; also called CA8 J9M0
Work on B7 yielded a Kd [1] of 35 pM, a Kd [2] of 460 pM and a Kd [7] of 21 pM. The Kd [8] was 42 pM, the Kd [9] was 52 pM and the binding result [6] was “binds”.

B8: CA8 humanised J6M2 (antibody, human IgG1, kappa, V domains shown)
VH: QVQLVQSGAEVKKPGSSVKVSCKASGGTFSNYWMHWVRQAPGQGLEWMGATYRGHSDTYYNQKFKGRVTITADKSTSTAYMELSSLRSEDTAVYYCARGAIYDGYDVLDNWGQGTLVTVSS
VL: DIQLTQSPSSLSASVGDRVTITCSASQDISNYLNWYQQKPGKAPELVIYYTSNLHSGVPSRFSGSGSGTDYTLTISSLQPEDFATYYCQQYRKLPWTFGQGTKLEIKR
notes: Humanised CA8, heavy chain J6 with light chain M2, human IgG1 kappa; also called CA8 J6M2
In the case of B8, the Kd [3] is reported as 71 pM, the Kd [4] is reported as 6860 pM and the Kd [5] is reported as 202 pM. B8: binds [6].

B9: CA8 humanised J8M0 (antibody, human IgG1, kappa, V domains shown)
VH: QVQLVQSGAEVKKPGSSVKVSCKASGYTFTNYWMHWVRQAPGQGLEWMGATYRGHSDTYYNQKFKGRVTITADKSTSTAYMELSSLRSEDTAVYYCTRGAIYDGYDVLDNWGQGTLVTVSS
VL: DIQMTQSPSSLSASVGDRVTITCSASQDISNYLNWYQQKPGKAPKLLIYYTSNLHSGVPSRFSGSGSGTDFTLTISSLQPEDFATYYCQQYRKLPWTFGQGTKLEIKR
notes: Humanised CA8, heavy chain J8 with light chain M0, human IgG1 kappa; also called CA8 J8M0
In the case of B9, the Kd [1] is reported as 52 pM and the Kd [2] is reported as 1080 pM.

B10: CA8 humanised J8M2 (antibody, human IgG1, kappa, V domains shown)
VH: QVQLVQSGAEVKKPGSSVKVSCKASGYTFTNYWMHWVRQAPGQGLEWMGATYRGHSDTYYNQKFKGRVTITADKSTSTAYMELSSLRSEDTAVYYCTRGAIYDGYDVLDNWGQGTLVTVSS
VL: DIQLTQSPSSLSASVGDRVTITCSASQDISNYLNWYQQKPGKAPELVIYYTSNLHSGVPSRFSGSGSGTDYTLTISSLQPEDFATYYCQQYRKLPWTFGQGTKLEIKR
notes: Humanised CA8, heavy chain J8 with light chain M2, human IgG1 kappa; also called CA8 J8M2
With B10 the Kd [1] was 57 pM and the Kd [2] was 1320 pM.

B11: CA8 humanised J9M2 (antibody, human IgG1, kappa, V domains shown)
VH: QVQLVQSGAEVKKPGSSVKVSCKGSGYTFTNYWMHWVRQAPGQGLEWIGATYRGHSDTYYNQKFKGRATLTADTSTSTAYMELSSLRSEDTAVYYCTRGAIYDGYDVLDNWGQGTLVTVSS
VL: DIQLTQSPSSLSASVGDRVTITCSASQDISNYLNWYQQKPGKAPELVIYYTSNLHSGVPSRFSGSGSGTDYTLTISSLQPEDFATYYCQQYRKLPWTFGQGTKLEIKR
notes: Humanised CA8, heavy chain J9 with light chain M2, human IgG1 kappa; also called CA8 J9M2
In the case of B11, the Kd [2] is reported as 515 pM.

B12: CA8 humanised J9M1 (antibody, human IgG1, kappa, V domains shown)
VH: QVQLVQSGAEVKKPGSSVKVSCKGSGYTFTNYWMHWVRQAPGQGLEWIGATYRGHSDTYYNQKFKGRATLTADTSTSTAYMELSSLRSEDTAVYYCTRGAIYDGYDVLDNWGQGTLVTVSS
VL: DIQMTQSPSSLSASVGDRVTITCSASQDISNYLNWYQQKPGKAPKLLIYYTSNLHSGVPSRFSGSGSGTDYTLTISSLQPEDFATYYCQQYRKLPWTFGQGTKLEIKR
notes: Humanised CA8, heavy chain J9 with light chain M1, human IgG1 kappa; also called CA8 J9M1
For B12, the Kd [1] was 18 pM, the Kd [2] was 442 pM and the binding result [6] was “binds”.
